{"source": "IntAct's records for PubMed 10648618", "parents": {"B1": {"name": "Carbon catabolite-derepressing protein kinase (Saccharomyces cerevisiae), P06782 (parent)", "chain": "MSSNNNTNTAPANANSSHHHHHHHHHHHHHGHGGSNSTLNNPKSSLADGAHIGNYQIVKTLGEGSFGKVKLAYHTTTGQKVALKIINKKVLAKSDMQGRIEREISYLRLLRHPHIIKLYDVIKSKDEIIMVIEYAGNELFDYIVQRDKMSEQEARRFFQQIISAVEYCHRHKIVHRDLKPENLLLDEHLNVKIADFGLSNIMTDGNFLKTSCGSPNYAAPEVISGKLYAGPEVDVWSCGVILYVMLCRRLPFDDESIPVLFKNISNGVYTLPKFLSPGAAGLIKRMLIVNPLNRISIHEIMQDDWFKVDLPEYLLPPDLKPHPEEENENNDSKKDGSSPDNDEIDDNLVNILSSTMGYEKDEIYESLESSEDTPAFNEIRDAYMLIKENKSLIKDMKANKSVSDELDTFLSQSPPTFQQQSKSHQKSQVDHETAKQHARRMASAITQQRTYHQSPFMDQYKEEDSTVSILPTSLPQIHRANMLAQGSPAASKISPLVTKKSKTRWHFGIRSRSYPLDVMGEIYIALKNLGAEWAKPSEEDLWTIKLRWKYDIGNKTNTNEKIPDLMKMVIQLFQIETNNYLVDFKFDGWESSYGDDTTVSNISEDEMSTFSAYPFLHLTTKLIMELAVNSQSN", "partner": "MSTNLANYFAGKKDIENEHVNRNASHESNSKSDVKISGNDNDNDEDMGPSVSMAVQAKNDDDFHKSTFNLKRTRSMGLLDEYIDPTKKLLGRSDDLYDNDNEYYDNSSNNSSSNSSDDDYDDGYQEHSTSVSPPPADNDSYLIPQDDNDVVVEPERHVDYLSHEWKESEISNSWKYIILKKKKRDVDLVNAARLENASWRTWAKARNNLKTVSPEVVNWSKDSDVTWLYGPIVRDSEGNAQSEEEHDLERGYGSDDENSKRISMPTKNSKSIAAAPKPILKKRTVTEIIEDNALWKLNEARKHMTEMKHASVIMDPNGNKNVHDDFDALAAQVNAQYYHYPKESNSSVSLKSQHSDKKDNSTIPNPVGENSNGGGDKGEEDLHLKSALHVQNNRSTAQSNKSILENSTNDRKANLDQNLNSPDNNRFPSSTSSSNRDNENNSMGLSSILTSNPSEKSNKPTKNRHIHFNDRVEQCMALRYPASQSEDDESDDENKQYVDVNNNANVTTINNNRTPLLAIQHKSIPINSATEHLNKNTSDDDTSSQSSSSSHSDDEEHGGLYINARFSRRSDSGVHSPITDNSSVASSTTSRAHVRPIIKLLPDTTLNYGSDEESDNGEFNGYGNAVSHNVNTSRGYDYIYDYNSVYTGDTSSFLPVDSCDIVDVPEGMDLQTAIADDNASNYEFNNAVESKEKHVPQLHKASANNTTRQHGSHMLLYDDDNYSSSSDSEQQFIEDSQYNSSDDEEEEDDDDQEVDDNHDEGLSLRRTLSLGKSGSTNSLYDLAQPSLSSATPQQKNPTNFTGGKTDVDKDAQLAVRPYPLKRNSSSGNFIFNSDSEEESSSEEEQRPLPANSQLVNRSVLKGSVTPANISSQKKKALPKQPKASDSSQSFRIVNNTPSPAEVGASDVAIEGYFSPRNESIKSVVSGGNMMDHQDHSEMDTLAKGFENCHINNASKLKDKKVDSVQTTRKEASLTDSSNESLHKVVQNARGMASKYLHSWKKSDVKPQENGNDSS"}}}
{"variants_of": "B1", "conditions": "with reg1_yeast REG1, Q00816"}
{"variant": "K84R", "effect of a mutation on the interaction": "with no effect"}
{"variants_of": "B1", "conditions": "with reg1_yeast REG1, Q00816", "remark": "another data set of the same source"}
{"variant": "K84R", "effect of a mutation on the interaction": "increasing interaction strength"}
